Reference: publication PMC11402785, “Structural basis for activity switching in polymerases determining the fate of let-7 pre-miRNAs” (Nature Structural & Molecular Biology, 2024)

T1: TUT4 (ZCCHC11);LIN28A (Homo sapiens;Homo sapiens, UniProt Q5TAX3;Q9H9Z2 254-1315;1-209, |)
T1 sequence 1: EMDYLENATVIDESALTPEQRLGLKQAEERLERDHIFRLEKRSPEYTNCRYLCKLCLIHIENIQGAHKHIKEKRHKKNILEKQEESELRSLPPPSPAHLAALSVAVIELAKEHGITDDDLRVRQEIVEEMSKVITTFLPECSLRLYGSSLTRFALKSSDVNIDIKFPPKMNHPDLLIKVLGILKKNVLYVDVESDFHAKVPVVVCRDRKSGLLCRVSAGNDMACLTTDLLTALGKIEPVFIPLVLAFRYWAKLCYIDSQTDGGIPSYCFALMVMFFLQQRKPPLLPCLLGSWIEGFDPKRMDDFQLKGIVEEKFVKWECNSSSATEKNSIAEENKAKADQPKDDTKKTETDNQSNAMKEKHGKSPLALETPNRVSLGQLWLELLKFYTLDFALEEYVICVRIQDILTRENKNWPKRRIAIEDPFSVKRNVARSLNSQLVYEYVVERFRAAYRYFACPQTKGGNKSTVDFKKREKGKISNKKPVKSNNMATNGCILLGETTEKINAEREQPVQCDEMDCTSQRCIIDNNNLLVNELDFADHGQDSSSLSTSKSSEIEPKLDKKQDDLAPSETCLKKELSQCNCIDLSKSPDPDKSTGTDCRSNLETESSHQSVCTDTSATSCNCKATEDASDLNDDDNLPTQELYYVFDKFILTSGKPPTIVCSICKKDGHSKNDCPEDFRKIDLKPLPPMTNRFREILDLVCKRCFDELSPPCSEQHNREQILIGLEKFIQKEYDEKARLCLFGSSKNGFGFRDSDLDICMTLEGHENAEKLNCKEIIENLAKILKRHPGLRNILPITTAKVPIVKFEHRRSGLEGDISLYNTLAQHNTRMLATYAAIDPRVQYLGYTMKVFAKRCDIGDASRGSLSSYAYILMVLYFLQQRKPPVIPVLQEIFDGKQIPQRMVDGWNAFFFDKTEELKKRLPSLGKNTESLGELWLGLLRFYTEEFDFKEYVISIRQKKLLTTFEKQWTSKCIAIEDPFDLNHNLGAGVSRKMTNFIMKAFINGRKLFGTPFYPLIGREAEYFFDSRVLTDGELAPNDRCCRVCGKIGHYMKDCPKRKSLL
T1 sequence 2: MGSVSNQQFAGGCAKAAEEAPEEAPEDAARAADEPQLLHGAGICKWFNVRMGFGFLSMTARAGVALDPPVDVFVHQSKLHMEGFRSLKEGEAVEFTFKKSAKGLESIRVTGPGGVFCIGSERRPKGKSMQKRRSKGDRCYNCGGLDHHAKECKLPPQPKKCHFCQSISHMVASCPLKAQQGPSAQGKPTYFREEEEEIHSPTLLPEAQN

T2: TUT4 K919/K920 mutant (ZK1);LIN28A (Homo sapiens;Homo sapiens, UniProt Q5TAX3;Q9H9Z2 254-1315;1-209, K919A;K920A|)
T2 sequence 1: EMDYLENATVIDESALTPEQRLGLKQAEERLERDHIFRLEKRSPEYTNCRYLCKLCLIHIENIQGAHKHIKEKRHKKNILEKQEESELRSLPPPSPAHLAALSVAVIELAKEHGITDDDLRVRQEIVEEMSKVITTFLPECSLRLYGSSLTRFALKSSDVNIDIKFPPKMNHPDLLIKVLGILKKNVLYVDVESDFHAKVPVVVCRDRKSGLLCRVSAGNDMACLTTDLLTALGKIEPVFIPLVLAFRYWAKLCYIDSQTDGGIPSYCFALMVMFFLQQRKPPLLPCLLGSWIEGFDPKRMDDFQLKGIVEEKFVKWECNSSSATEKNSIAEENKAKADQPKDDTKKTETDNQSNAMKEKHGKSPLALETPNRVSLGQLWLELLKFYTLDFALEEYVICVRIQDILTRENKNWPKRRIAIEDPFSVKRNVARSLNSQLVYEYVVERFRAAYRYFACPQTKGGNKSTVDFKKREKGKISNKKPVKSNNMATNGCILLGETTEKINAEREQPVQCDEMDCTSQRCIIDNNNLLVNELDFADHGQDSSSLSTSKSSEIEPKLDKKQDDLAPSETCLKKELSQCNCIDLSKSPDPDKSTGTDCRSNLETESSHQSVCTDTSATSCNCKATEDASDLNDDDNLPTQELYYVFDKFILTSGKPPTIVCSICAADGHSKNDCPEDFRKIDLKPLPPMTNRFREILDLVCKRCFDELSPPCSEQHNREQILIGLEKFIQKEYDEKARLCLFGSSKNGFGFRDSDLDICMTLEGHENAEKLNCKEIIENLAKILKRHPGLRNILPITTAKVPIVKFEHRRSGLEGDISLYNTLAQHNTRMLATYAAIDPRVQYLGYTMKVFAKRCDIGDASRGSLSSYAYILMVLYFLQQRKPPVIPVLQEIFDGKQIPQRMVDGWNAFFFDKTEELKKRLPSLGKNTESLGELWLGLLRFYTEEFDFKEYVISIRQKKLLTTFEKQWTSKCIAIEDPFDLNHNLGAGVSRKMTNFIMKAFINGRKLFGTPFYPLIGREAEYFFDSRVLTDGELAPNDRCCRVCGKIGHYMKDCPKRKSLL
T2 sequence 2: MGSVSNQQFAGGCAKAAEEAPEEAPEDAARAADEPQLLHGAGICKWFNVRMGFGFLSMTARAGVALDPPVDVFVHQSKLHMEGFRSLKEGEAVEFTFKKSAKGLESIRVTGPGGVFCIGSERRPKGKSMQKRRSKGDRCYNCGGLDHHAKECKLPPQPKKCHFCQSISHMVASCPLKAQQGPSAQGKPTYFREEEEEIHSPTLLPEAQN

B1: pre-let-7g (structured_RNA)
RNA: UGAGGUAGUAGUUUGUACAGUUUGAGGGUCUAUGAUACCACCCGGUACAGGAGAUAACUGUACAGGCCACUGCCUUGC
B2: pre-let-7g_3'CY (structured_RNA)
RNA: UGAGGUAGUAGUUUGUACAGUUUGAGGGUCUAUGAUACCACCCGGUACAGGAGAUAACUGUACAGGCCACUGCCUUGC

Experiments:
TUT7 (ZCCHC6);LIN28A = TUT7 (ZCCHC6);LIN28A (Homo sapiens;Homo sapiens, UniProt Q5VYS8;Q9H9Z2 1-1495;1-209, |); experiment: cryo-EM; Zn2+; ternary conformation I, 3.81 A; EMSA: 20 mM HEPES pH 7.8, 100 mM NaCl, 2 mM CaCl2, 50 uM ZnCl2, 5% glycerol, 5 mM DTT, 0.5 mM UTP, RNase inhibitor, on ice 30 min; 0.1 uM RNA, 0.2 uM TUT, 0.3 uM LIN28A; native gel in 1x TBE at 4 C; settings: protein: recombinant;recombinant; tags: N-term His6-GST (TEV cleavable), C-term twin-Strep;N-term His6-GST fusion; copies: 1;1; hairpin, 1 nt 3' overhang
Sequence of TUT7 (ZCCHC6);LIN28A (Q5VYS8 whole entry, the tested form may be a part, one chain of several): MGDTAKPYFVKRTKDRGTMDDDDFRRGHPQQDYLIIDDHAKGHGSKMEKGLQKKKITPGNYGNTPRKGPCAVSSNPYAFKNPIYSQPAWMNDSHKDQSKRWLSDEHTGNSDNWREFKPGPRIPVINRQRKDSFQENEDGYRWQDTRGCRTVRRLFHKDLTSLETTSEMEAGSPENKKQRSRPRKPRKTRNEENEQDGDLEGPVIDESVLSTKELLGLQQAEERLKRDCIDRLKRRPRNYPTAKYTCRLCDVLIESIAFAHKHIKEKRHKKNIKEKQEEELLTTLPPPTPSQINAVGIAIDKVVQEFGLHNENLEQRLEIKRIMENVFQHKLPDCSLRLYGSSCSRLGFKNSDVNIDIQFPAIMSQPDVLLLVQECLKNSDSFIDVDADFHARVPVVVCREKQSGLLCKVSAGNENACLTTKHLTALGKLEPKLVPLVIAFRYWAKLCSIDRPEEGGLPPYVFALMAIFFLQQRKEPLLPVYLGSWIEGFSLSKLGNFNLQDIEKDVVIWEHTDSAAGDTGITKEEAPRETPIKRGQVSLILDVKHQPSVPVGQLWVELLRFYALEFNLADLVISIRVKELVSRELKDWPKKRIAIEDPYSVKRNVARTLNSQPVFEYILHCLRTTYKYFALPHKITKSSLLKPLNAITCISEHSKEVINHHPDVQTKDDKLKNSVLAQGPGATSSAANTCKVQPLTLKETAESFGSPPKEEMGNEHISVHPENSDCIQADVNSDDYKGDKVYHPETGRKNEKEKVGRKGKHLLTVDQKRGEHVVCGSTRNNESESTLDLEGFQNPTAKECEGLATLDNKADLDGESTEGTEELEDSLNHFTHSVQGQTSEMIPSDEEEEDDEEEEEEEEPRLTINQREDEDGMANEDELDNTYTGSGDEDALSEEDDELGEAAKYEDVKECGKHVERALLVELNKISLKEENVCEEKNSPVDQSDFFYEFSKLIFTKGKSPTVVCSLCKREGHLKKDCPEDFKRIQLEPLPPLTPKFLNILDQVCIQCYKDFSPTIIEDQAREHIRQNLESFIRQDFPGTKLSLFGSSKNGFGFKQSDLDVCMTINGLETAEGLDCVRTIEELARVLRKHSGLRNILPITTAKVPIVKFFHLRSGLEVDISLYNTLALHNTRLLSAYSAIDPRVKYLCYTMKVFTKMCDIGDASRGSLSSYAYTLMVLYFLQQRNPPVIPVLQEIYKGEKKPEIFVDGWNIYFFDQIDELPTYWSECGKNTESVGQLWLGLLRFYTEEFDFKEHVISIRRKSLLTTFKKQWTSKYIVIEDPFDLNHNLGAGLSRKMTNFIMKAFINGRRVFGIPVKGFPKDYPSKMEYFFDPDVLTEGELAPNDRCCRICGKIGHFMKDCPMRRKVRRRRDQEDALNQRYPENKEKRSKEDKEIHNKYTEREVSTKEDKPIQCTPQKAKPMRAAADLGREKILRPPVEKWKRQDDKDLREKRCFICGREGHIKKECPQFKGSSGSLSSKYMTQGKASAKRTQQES

TUT4 (ZCCHC11);LIN28A [1] = target: T1, TUT4 (ZCCHC11);LIN28A; experiment: cryo-EM; Zn2+; ternary capture state, 3.68 A; EMSA: 20 mM HEPES pH 7.8, 100 mM NaCl, 2 mM CaCl2, 50 uM ZnCl2, 5% glycerol, 5 mM DTT, 0.5 mM UTP, RNase inhibitor, on ice 30 min; 0.1 uM RNA, 0.2 uM TUT, 0.3 uM LIN28A; native gel in 1x TBE at 4 C; settings: protein: recombinant;recombinant; tags: N-term His6-GST (TEV cleavable), C-term twin-Strep;N-term His6-GST fusion; copies: 1;1; hairpin, 1 nt 3' overhang
[2] = target: T2, TUT4 K919/K920 mutant (ZK1);LIN28A; experiment: EMSA; 0.5 mM UTP, Ca2+, Zn2+; higher-order assemblies seen; EMSA: 20 mM HEPES pH 7.8, 100 mM NaCl, 2 mM CaCl2, 50 uM ZnCl2, 5% glycerol, 5 mM DTT, 0.5 mM UTP, RNase inhibitor, on ice 30 min; 0.1 uM RNA, 0.2 uM TUT, 0.3 uM LIN28A; native gel in 1x TBE at 4 C; settings: protein: recombinant;recombinant; tags: N-term His6-GST (TEV cleavable), C-term twin-Strep;N-term His6-GST fusion; copies: 1;1; label: 3' CY dye; hairpin, 1 nt 3' overhang
TUT4 (ZCCHC11);LIN28A [3] = target: T1, TUT4 (ZCCHC11);LIN28A; experiment: EMSA; 0.5 mM UTP, Ca2+, Zn2+; higher-order assemblies, concentration dependent; EMSA: 20 mM HEPES pH 7.8, 100 mM NaCl, 2 mM CaCl2, 50 uM ZnCl2, 5% glycerol, 5 mM DTT, 0.5 mM UTP, RNase inhibitor, on ice 30 min; 0.1 uM RNA, 0.2 uM TUT, 0.3 uM LIN28A; native gel in 1x TBE at 4 C; settings: protein: recombinant;recombinant; tags: N-term His6-GST (TEV cleavable), C-term twin-Strep;N-term His6-GST fusion; copies: 1;1; label: 3' CY dye; hairpin, 1 nt 3' overhang

Binder | binding result (TUT7 (ZCCHC6);LIN28A) | binding result (TUT4 (ZCCHC11);LIN28A [1]) | binding result [2] | binding result (TUT4 (ZCCHC11);LIN28A [3])
B1 | binds | binds | – | –
B2 | – | – | binds | binds
